In one experiment the target is Gβ1γ2 (UniProt P54311+P63212). The experiment is described as follows: Competition phage ELISA: inhibition of SIGK-phage binding to immobilized biotinylated Gβ1γ2. Details: made in house; host or cells: Sf9 insect cells (baculovirus; co-expressed with BirA and (His)6-Gαi1, from which βγ was eluted); species or system rat. On the procedure: Phage ELISA assays used to assess peptide binding to wild-type and mutant b-βγ were performed according to standard methods (Smrcka and Scott (2002) Methods Enzymol. 344:557-76). Briefly, 1 μg streptavidin was immobilized in the well of a […] overnight at 4° C. The wells were blocked with 100 μL of 2% bovine serum albumin (BSA) in Tris-buffered saline (TBS) for 1 hour at 4° C. followed by three washes of IX TBS/0.5% TWEEN®. […] The wells were washed, followed by the addition of IxIO^6 to IxIO^10 phage particles and incubated at 4° C. for 3 hours. The wells were then washed six times with TBS/0.5% TWEEN® followed by addition of 40 μL of 1:5000 dilution of anti-M13 antibody (Pharmacia, Uppsala, Sweden) and incubated at room temperature for 1 hour. The wells were washed, followed by the addition of 40 μL of (2,2′-Azino-bis (3-ethylbenzthiazoline)-6-sulfonic acid (ABTS) and the colorimetric reaction was monitored at 405 nm. Nonspecific binding was subtracted for each reading.
A phage ELISA assay was used to determine whether small molecules identified in the computational screen could interact with the Gβy protein interaction surface. […] The screen was based on a reduction in the optical density (OD) of wells containing Gβγ subunits and phage. […] Three background wells contained no βy subunits.
As disclosed herein, biotinylated Gβy subunits were immobilized on the surface of a 96-well plate coated with streptavidin, phage displaying Gβγ-binding peptides were subsequently added and binding in the presence and absence of test compounds detected with an anti-phage antibody.
The phage ELISA assay was used to rapidly screen the ability of compounds to bind to the protein interaction “hot spot” based on the method of Scott et. al (Scott et al., 2001). This assay is performed in the presence of detergent (0.5% Tween) to eliminate non-specific compound aggregation artifacts.
Compounds/DMSO and 0.1×10^10 phage were added simultaneously and subsequently incubated for 1 h at room temperature. Plates were then washed with 1× Tris-buffered saline/0.5% Tween 20 and incubated with anti-M13, HRP-conjugated antibody (Amersham, Chalfont St. Giles, Buckinghamshire, UK). Phage binding was determined by monitoring A405 upon addition of 2,2′-azino-bis(3-ethylbenzothiazoline-6-sulfonic acid) (Sigma Aldrich).
For orientation: In an ELISA, binding on a coated surface is turned into a signal by an enzyme label.

The test system of another experiment is PLCβ2. Put plainly: Gβ1γ2-dependent activation of purified PLCβ2. Type of experiment: biochemical. On the procedure: (§1) Purified PLCβ2 (0.25 ng) was assayed in the presence (▴) or absence (▪) of 100 nM purified Gβ1γ2. […] Assays contained 10 ng of purified p101/p110 PI3Kγ heterodimer with or without 100 nM purified Gβ1γ2. Left panel: (▴) 100 nM Gβ1γ2 or (▪) no βγ. […] M119 or M201 and 25 nM purified GRK2 were added simultaneously to 250 nM biotinylated Gβ1γ2 (bGβ1γ2) immobilized on streptavidin agarose. GRK2 was detected with antibody to GRK2. Data are representative (mean ±SEM, except D) repeated at least three times each. […] 30 nM bGβ1γ2 was incubated with either 30 nM PLCβ2 or PLCβ3 in the presence or absence of M119 or M201 for 16 h at 4° C. before precipitation with avidin agarose and detection with PLCβ2,or Gβ antibodies. […] Same as 4E with PLCβ3.
(§2) The ability of NSC119910 analogs to selectively modulate activation PLC-β2 and -β3 was analyzed. In this assay, PLC-β2 and PLC-β3 were purified and PLC enzymatic activity was measured in the presence or absence of purified βy and in the presence or absence of analog.
(§3) Nevertheless, M119 and M201 were tested in in vitro reconstitution assays of Gβγ-dependent activation of PLCβ2, PLCβ3 and PI3Kγ and binding to GRK2. […] These are only two of multiple diverse compounds identified, indicating potential for multiple modes of Gβγ-dependent target modulation by these small molecules.

The subject of the next experiment is PLCβ3. Put plainly: Gβ1γ2-dependent activation of purified PLCβ3. Type of experiment: biochemical. Details: key to PLCb3: NE = No effect. As to conditions: Table 19, effector IC50. On the procedure:
as §1, §2, §3

Another experiment concerns PI3Kγ. The experiment is described as follows: Gβ1γ2-dependent activation of purified p101/p110 PI3Kγ. Type of experiment: biochemical. On the procedure: as §1, §3
The target of experiment [1] is T1, Gβ1γ2 (Gβ1 mutants) (UniProt P54311+P63212, D246S).
T1 construct: made in house; host or cells: Sf9 insect cells (baculovirus), partially purified via (His)6-Gαi1 on Ni-NTA
The experiment is described as follows: Phage ELISA: binding of peptide-displaying phage to wild-type or alanine-substituted b-βγ. Also on record: species or system rat. To be noted: Gβ1 Asp246Ser; mean ± SD. The text has this: (§4) Wild-type Gβ1 and Gp1 mutants were made in the baculovirus vector PDW464 which encodes a biotinylation site at a lysine upstream of the amino terminus of Gβ1 (Goubaeva, et al. (2003) supra). Mutants were generated by overlap extension PCR using standard protocols. The wild-type and mutant Gβ1 constructs consisted of a 20 amino acid biotin acceptor peptide (BAP) sequence fused in-frame with the amino-terminus of rat Gβ1 subunit. When coexpressed with biotin holoenzyme synthetase (BirA) in Sf9 cells, the Gβ1 subunit becomes covalently biotinylated in vivo at the specific lysine acceptor residue in the BAP. Using this approach, 1-2 mg protein of purified protein can be obtained per liter of Sf9 insect cells. As 45 ng of protein is used in the phage ELISA assay, a single purification is sufficient for 10,000 to 30,000 binding assays.
(§5) Phage ELISA assays used to assess peptide binding to wild-type and mutant b-βγ were performed according to standard methods (Smrcka and Scott (2002) Methods Enzymol. 344:557-76). Briefly, 1 μg streptavidin was immobilized in the well of a […] overnight at 4° C. The wells were blocked with 100 μL of 2% bovine serum albumin (BSA) in Tris-buffered saline (TBS) for 1 hour at 4° C. followed by three washes of IX TBS/0.5% TWEEN®. Forty μL of 25 nM bGβ1γ2 in TBS/0.5% TWEEN® was added to each well and incubated at 4° C. for 1.5 hour. The wells were washed, followed by the addition of IxIO^6 to IxIO^10 phage particles and incubated at 4° C. for 3 hours. The wells were then washed six times with TBS/0.5% TWEEN® followed by addition of 40 μL of 1:5000 dilution of anti-M13 antibody (Pharmacia, Uppsala, Sweden) and incubated at room temperature for 1 hour. The wells were washed, followed by the addition of 40 μL of (2,2′-Azino-bis (3-ethylbenzthiazoline)-6-sulfonic acid (ABTS) and the colorimetric reaction was monitored at 405 nm. Nonspecific binding was subtracted for each reading.
(§6) The nine peptides were selected to represent the different consensus groups of peptides previously identified (See Scott et al. (2001) supra; Table 15) and to compare binding characteristics within and between consensus groups. […] As disclosed herein, the binding signal obtained in the ELISA assay was correlated to a loss in affinity by comparing the results to behavior of the peptide in a solution based assay. […] For the purposes of present disclosure, any substitution that decreased the binding to less than 20% of the wild-type binding was considered to be a critical binding contact for that peptide.

The target in experiment [2] is T2, Gβ1γ2 (Gβ1 mutants) (UniProt P54311+P63212, Y145A).
T2 construct: made in house; host or cells: Sf9 insect cells (baculovirus), partially purified via (His)6-Gαi1 on Ni-NTA
The description is as above. Also on record: species or system rat. As to conditions: Gβ1 Tyr145Ala; mean ± SD.
Excerpt: as §4, §5, §6

Experiment [3] has as its target T3, Gβ1γ2 (Gβ1 mutants) (UniProt P54311+P63212, K57A).
T3 construct: made in house; host or cells: Sf9 insect cells (baculovirus), partially purified via (His)6-Gαi1 on Ni-NTA
The description is as above. To be noted: Gβ1 Lys57Ala; mean ± SD. Details: species or system rat.
Excerpt: as §4, §5, §6

Experiment [4] concerns the target T4, Gβ1γ2 (Gβ1 mutants) (UniProt P54311+P63212, N230A).
T4 construct: made in house; host or cells: Sf9 insect cells (baculovirus), partially purified via (His)6-Gαi1 on Ni-NTA
The description is as above. Details: species or system rat. To be noted: Gβ1 Asn230Ala; mean ± SD.
Excerpt: as §4, §5, §6

Experiment [5] concerns the target T5, Gβ1γ2 (Gβ1 mutants) (UniProt P54311+P63212, W332A).
T5 construct: made in house; host or cells: Sf9 insect cells (baculovirus), partially purified via (His)6-Gαi1 on Ni-NTA
Described as above. Also on record: species or system rat. To be noted: Gβ1 Trp332Ala; mean ± SD.
Excerpt: as §4, §5, §6

Experiment [6] deals with T6, Gβ1γ2 (Gβ1 mutants) (UniProt P54311+P63212, M101A).
T6 construct: made in house; host or cells: Sf9 insect cells (baculovirus), partially purified via (His)6-Gαi1 on Ni-NTA
The description is as above. Details: species or system rat. To be noted: Gβ1 Met101Ala; mean ± SD.
Excerpt: as §4, §5, §6

The target of experiment [7] is T7, Gβ1γ2 (Gβ1 mutants) (UniProt P54311+P63212, Y59A).
T7 construct: made in house; host or cells: Sf9 insect cells (baculovirus), partially purified via (His)6-Gαi1 on Ni-NTA
Described as above. To be noted: Gβ1 Tyr59Ala; mean ± SD. Details: species or system rat.
Excerpt: as §4, §5, §6

Experiment [8] deals with T8, Gβ1γ2 (Gβ1 mutants) (UniProt P54311+P63212, L117A).
T8 construct: made in house; host or cells: Sf9 insect cells (baculovirus), partially purified via (His)6-Gαi1 on Ni-NTA
The description is as above. Also on record: species or system rat. To be noted: Gβ1 Leu117Ala; mean ± SD.
Excerpt: as §4, §5, §6

The target of experiment [9] is T9, Gβ1γ2 (Gβ1 mutants) (UniProt P54311+P63212, M188A).
T9 construct: made in house; host or cells: Sf9 insect cells (baculovirus), partially purified via (His)6-Gαi1 on Ni-NTA
Described as above. Also on record: species or system rat. As to conditions: Gβ1 Met188Ala; mean ± SD.
Excerpt: as §4, §5, §6

Experiment [10] has as its target T10, Gβ1γ2 (Gβ1 mutants) (UniProt P54311+P63212, H311A).
T10 construct: made in house; host or cells: Sf9 insect cells (baculovirus), partially purified via (His)6-Gαi1 on Ni-NTA
The description is as above. As to conditions: Gβ1 His311Ala; mean ± SD. Details: species or system rat.
Excerpt: as §4, §5, §6

In experiment [11] the target is T11, Gβ1γ2 (Gβ1 mutants) (UniProt P54311+P63212, W99A).
T11 construct: made in house; host or cells: Sf9 insect cells (baculovirus), partially purified via (His)6-Gαi1 on Ni-NTA
The experiment is described as above. Details: species or system rat. To be noted: Gβ1 Trp99Ala; mean ± SD.
Excerpt: as §4, §5, §6

Experiment [12] has as its target T12, Gβ1γ2 (Gβ1 mutants) (UniProt P54311+P63212, R314A).
T12 construct: made in house; host or cells: Sf9 insect cells (baculovirus), partially purified via (His)6-Gαi1 on Ni-NTA
The description is as above. Details: species or system rat. To be noted: Gβ1 Arg314Ala; mean ± SD.
Excerpt: as §4, §5, §6

Experiment [13] has as its target T13, Gβ1γ2 (Gβ1 mutants) (UniProt P54311+P63212, D186A).
T13 construct: made in house; host or cells: Sf9 insect cells (baculovirus), partially purified via (His)6-Gαi1 on Ni-NTA
The experiment is described as above. As to conditions: Gβ1 Asp186Ala; mean ± SD. Also on record: species or system rat.
Excerpt: as §4, §5, §6

Read-outs that look alike come from different tables or passages of the source.

The values below come from patent US8975259B2, “Compositions and methods for inhibiting G protein signaling” (University of Rochester, priority 2007, dated 2015).

Regarding `O=C1c2ccccc2C(=O)c2c(Nc3cc4c5c(ccc6c7ccc8c9c(cc(Nc%10cccc%11c%10C(=O)c%10ccccc%10C%11=O)c(c3c56)c97)-c3ccccc3C8=O)C(=O)c3ccccc3-4)cccc21` [Compound M231], the IC50 was determined as 16 µM on Gβ1γ2 (Table 8, read-out: IC50); 16 µM on Gβ1γ2 (Table 18, compounds identified in Elisa screen, read-out: IC50); 27 µM at Gβ1γ2 (Table 19, read-out: ELISA); 167 µM in the experiment with PLCβ2 (Table 19, effector IC50, read-out: PLCb2); 13.5 µM in the experiment on PI3Kγ (Table 19, effector IC50, read-out: PI 3-Kg). For the same molecule, the PLCb3 entry with PLCβ3 is on record as “NE”.
`Nc1c(S(=O)(=O)O)cc(Nc2cccc(S(N)(=O)=O)c2)c2c1C(=O)c1ccccc1C2=O` [drawing 62]: in the experiment with PI3Kγ (Table 5, read-out: PI3Kγ IC50), the IC50 is 10 µM.
LCSKAYLLLGQTC [Compound 2F]: the “% of Wild-Type Signal” value is reported as 0.6 ± 2.5% with Gβ1γ2 (Gβ1 mutants) [1]; 0.1 ± 6.5% with Gβ1γ2 (Gβ1 mutants) [2]; −4.5 ± 6.2% in the experiment with Gβ1γ2 (Gβ1 mutants) [3]; 27.6 ± 19.1% in the experiment with Gβ1γ2 (Gβ1 mutants) [4]; −1.5 ± 3.6% in the experiment with Gβ1γ2 (Gβ1 mutants) [5]; 6.0 ± 5.1% with Gβ1γ2 (Gβ1 mutants) [6]. Further, the “% of Wild-Type Signal” value in the experiment with Gβ1γ2 (Gβ1 mutants) [7] is −2.0 ± 9.5%; in the experiment with Gβ1γ2 (Gβ1 mutants) [8], 2.1 ± 5.5%; in the experiment with Gβ1γ2 (Gβ1 mutants) [9] it was 8.5 ± 5.2%; in the experiment with Gβ1γ2 (Gβ1 mutants) [10], 23.6 ± 46.0%; with Gβ1γ2 (Gβ1 mutants) [11], 32.6 ± 26.3%; in the experiment with Gβ1γ2 (Gβ1 mutants) [12], 2.4 ± 3.9%. In the experiment with Gβ1γ2 (Gβ1 mutants) [13], the “% of Wild-Type Signal” value is given as 2.4 ± 3.5%.
Regarding `Nc1ccc(-c2ccc(Nc3cc(S(=O)(=O)O)c(N)c4c3C(=O)c3ccccc3C4=O)cc2)c(S(=O)(=O)O)c1` [drawing 57], the IC50 in the experiment on PLCβ2 (Table 3, read-out: PLCβ2 IC50) was greater than 30 µM.
